# Source: a protein production outcome set (Wang et al. 2014)
# Assay: label from the status in PepcDB records
# 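Note: failed if final PepcDB status was selected cloned or expressed and not failed if soluble or beyond.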
row,Sequence,protein production
1,MDNQHNQNHIMGTLQWFIFLLANSIALPIVVGGLFHLTTEEIFYLMQRTFFVVGISSFLQGWLGHRLPIADGPAGSWVGVFTVLAYATAGQDQLHSTLQILELGMIISGIILIGLGVTGFIGRILFLFTPLVTGTFLLLLCLQLSGVFLKGMLGITATISQIDGFTAMIAFSIFLFVIILSNFGKGFVKSYAVLIGLISGWIIFLIAGKVTIPSQVTHFVQLPHIFAWGLPKWNTGMAVSSFVMVCILVSNTVAAIIAINQATIHKATIEQKQLKDGTWVGGISHIISSVFSTVGVVPLPATAGFIRLTKQKYIRSFLMACALLVVMSLFPSIIRYLASLPSAVASAVLMASFVQLIGIGFNNIKQVPMSERNVTILGVAVLFGSGVMFLPSGALQSLPSVMQYIFGNGLFVGTVVSILLEQIWRVGK,not failed
2,MTPFPHASLFTPHSSRITPSLHLPVRLGNATFDTRHRTALTMSADRLEQLKTFHEEDPEDPFTRYALAQEHLKHDNASRALALFEELVETDPDYVGTYYHLGKLYERLDRTDDAIDTYAQGIEVAREEGTQKDLSELQDAKLKAEGVGFD,failed
3,MTNLLVIGATGNIGQPLIRDLQDDPDVHLFAGVHNSEHAKQALNGLKVQVRRFDFLDPATFEQALADIDKVFFVRPPQLAKPKEDMYPFLDALVARHVKQVVFVSLLGVAHNPMTPHHQIEKRIVELGLPYTFIRPSFFMQNLNTTHQADIVGHRDLFVPAGHARTSFIDTRDIGATAAVILRDPAYIGQKLDITGAQALTYADAAQIMTMELGVPITYSKPSLWRFRKVMLQRGLPKNYVNVMVMLYLITQLGNAKTVTTTLPNVLGRPAISFEQYVHDYRAEFLPKPLSLEHHHHHH,failed
4,MLIENAVDFIENANIGIHTVSPEGIIKYANEHELTVLGYTEDEYVGHHVSEFQFDKSCLEQMMIKLAKFESFSNFPAMVCGKLKMKYILYNSSVYAEDGEFVHTRCFGNEISKSVYQACKVDYKKSLTNRVD,failed
5,MLQCGAKNVNPLERFVSSLPVAAVLPELLAALDGASQVLLSAPTGAGKSTWLPLQLLAHPGINGKIILLEPRRLAARNVAQRLAELLNEKPGDTVGYRMRAQNCVGPNTRLEVITEGVLTRMIQRDPELSGVGLVILDEFHERSLQADLALALLLDVQQGLRDDLKLLIMSA,failed
6,NEVDDMDTSDTQWGWFYLAECGKWHMFQPDTNSQCSVSSEDIEKSFKTNPCGSISFTTSKFSYKIDFAEMKQMNLTTGKQRLIKRAPFS,not failed
7,MAPLSFEVRSVSVLVLVLAVSAAFCLGIGFVLQQNAAQHAPLSDFLSPRLLLDLMHVRRWLGGIGFMVVGMVLGAVALAHGELSLVEPLLATNLLFALGLSRRQTKQPLGRQGWAGLALLAGGVTAFIVAGQPTGGDAVTNPLRHWVIIGVMVGFALLLTTYAKQSRLSAAPVLLSLAAGLLYGVQDALTRVSGQRFSEGGWPELVTGWQPYAVLALGVTGLVLVQSAFETAPLRMSLPALTAAQPLAGIVCGVGFLGDQLRTDTGALAWEAAGLAAVVLGIVLLGLHPAMPRGSAEAERQRDLQPH,failed
8,MNAEHAVTLRAPAADWERSEREARQAAAYVAAFVGVPAVVAAAAALALFALTALVLLAPLVACVLTWAAWRYGRPERRGARRA,failed
9,MIKGNKMASFSQVSFSIPQRVIHWAMALLIFFNLLFPDAMAHAYRLMRRGETLTPDQISSANIHAYVGFAILLLAVLRLCLRFFQGVPPHPAEEPRASQIAAKAAHFTFYVLFFILPLSGIAAYYFGIATAGELHSGPFKAVMWVLIAGHVAAVLVHQFYWRTNVLKRMTHG,failed
10,MTISQNRNGDDVAVHKFGLFVAKHRKLVLAIAILLLIPSIYGFVTTKVNYDILTYLPKDLESVKGQDILDKEFKQAALSMLIVKGDMNISNIQKLKSKISQVDGVEKVIWIDDFLDPTIPKEMLPDVLKNTFYSKDSTLLLIQFKNSASSLETQNAISKIRKIATAQCFLSGMSAIIKDTRDLSDRETPLYVLVAVVFIFILLLLTMESPIVPILFLTSIGMAIIYNLGTNKFLGEISYITKSLAAVLQLGVTMDFSIFLMHRYDEERKRFDSKEEAMAEAISKTLVAILSSAATAIAGFLALCVMRLRIGADIGIVMAKGVFLGVIGTVTILPALILTFDRAIHKFRLKNILPTFSKTAEFATKYHVVLFVVFLLAFIPAIYGRVNIKEYYNLIDSLPKTIKSVQATDLLKKEYNMTTTHMVLVDRSVPKYQIKNMCEEIKRVKGVEKVLAFDDILGPAIPDEFIPSSVKENFEKGNFKLIMINSIYKSATSEENAQIERIQQIVKKYSKRSYVTGEGVLTKDLVEMADTDLKRVDFISILAIFMIILITFKSISIPLILVLAIELAIFINLAIPYYTNVTVPFIASIVLGTIQLGSAINYAILMTTRFREEIQKGHDRFEAIKIAVKTSSRSVVTSALAFAFSTLAVALIAKIDMIRSLCEMLSRGAVISMIVILFVLPSLLLLFEGAIAKTTFGWRSKEASVKPSEEYETL,failed
11,MTETRIKQLLGQMSLEEKVSILSGEDFWSVAAVERLGIGKLRVSDGPNGARGGGSLVGGVKSASFPVGIAIGSTWNVELVREIGAALADEVKSKGAHMLLAPTVNIHRSVTNGRNFECYSEDPILSAELAVSYITGLQEQGIGATIKHFVGNESEIERTTISSEVDERALREIYLIPFEWAVRKAHTWGIMSSYNRLNGTFTSEHDWLLGHVLRDEWHYDGIVMSDWFGSHSTAETVNAGLDLEMPGPTRDRGQKLVDAVNAGEVSLETLDRRVLAMLRLMERVGSLDDHRPHVEKAEDRPEHRALIRRAGAEAAVLLKNDGVLPLEGSGKIAVIGPNAKTAQIMGGGSAQLNAHYRISPWQGLVAALGEERLTYAKGCTNDRFEPLLRGVLDVDYFDNLTLSGEPVHRGTIEDAQTFWIGQVAEGKVDALHFSARVRGRFTPEASGEHNVGIYAAGFAKVYIDGKLVADAWTNWTKGRTFFEEGCDEVVGTITLEAGHAYDVTIEFCTKDFATLGLAAFACGIGHPLGDDAIAAAVEAARTAETALLFIGRNGEWDTEGSDLPAIVLPGRQNELVEAVAAVNPRTVVVLQSGGPVEMPWAGQVAAVVSAWYPGQEAGNAIADVLTGLAEPGGRLPQTFPVRWADNPAHSQDREVYPGLEGKVRYEESIFVGYRHYDKLGLTPLYPFGFGLGYTSFALSDLSVDASNFETEGTVSVTLNVTNTGDRVGSTVVQLYVSDTLSSAPRPSKELKAFAKVKLEAGASRGVTLSLDARAFAFFDAGSKSWLVEPGDFILRVGQSSADLPLTARITRTGAMHLPL,failed
12,MLSKFIKTTLATSLLITLSACSNLKSPVPPAKKADQEKLYESTKNYNALIAMYRADLKHFKDPMTQFKLAKSYYHIGDSKSSVLYLKPLRFTKQPFNNEIELLYIRNLIQLGKYQEAQTVATDLIKMSPQNSEAYNLRGISSAQQGELAKAEQDMNKARELFINDVVAINNIAMLNILNNDYRNAVNLLLPQYLNGSKDSRLIHNLVFALVKSGDIDYATDIIRKESLYASPEDLINALKNTEKAPKVGR,failed
13,MDTPNKDDSIIRFSVSLQQNLLDELDNRIIKNGYSSRSELVRDMIREKLVEDNWAEDNPNDESKIAVLVVIYDHHQRELNQRMIDIQHASGTHVLCTTHIHMDEHNCLETIILQGNSFEIQRLQLEIGGLRGVKFAKLTKASSFEYNE,failed
14,MHELIRDITLCILFAWMLGLLAHFSRQPLILAYLIAGFCIGPFGAGWVKSQESISVISELGLIFMLFMIGLEIDLKKIVRAGKVILFAAGGQLPGGCLLGVLFFAGIGLSLGGGHFDAVYLCIACALSSTVIIVKVLYEKRELDTLPGRITLGVLVLQDIFAILFLAVQPSLANLQVSVILLSIGRVAVLVAAALLVSRYVLPRLFHQIARRPELILLGALAWCFLVAETAERLSLSREMGALIAGVSLSTFPYALDVTAKVTTLRDFFITLFFVALGMTIPVPGLSVIGLALMIAAFTVVSRLVTTFTPLYLMKQGLRASLLPALNLAQISEFSLVVIQTGVTDNHIAAETANAASFAFVVLAVLSTFVMTRSDEIARWAIGPLKRIGLRDLDHGNGHAEEGHEGGHGEARRIVILGFFRAASALLAEIERQAPVLLEQITVVDFNPNVYQTLLSRGLHVIYGDISSADTLLHAGVGKSEMIILSVPDALLKGASNEKLVRHVRTLNPTAMIVATADLLSDVGELYEAGASYVTVTRLSDAHELFTVIEAAQAGLLADKRAELDLRLGERREVLP,failed
15,DSVDKTMHIGRQLGSLVNKGDILCLTGDLGTGKTHISKGIAEGLGIDEHITSPTFNIVNEYHSGRLTLYHFDVYRVNDPDEIEAIGFDEYIFGDGVSLIEWANYIEELIPEEYIHIKIEKLPDMGENFRKITINGYGDRYNYIKEIKE,failed
16,MNLHSRQDEGPIPSGNPYALSLSMSAILAPFKKIYDLIDGFVLIMLTAIGIALIAPEIGTGDGPLRLGVVTNLGVALVFFLHGAALSRDKLVAGAKHWRLHVFVQSFTYIVFPIVGVLLMLSLRNTLPPELLLGVFYLCALPSTVSSSVAMTSMARGNVPGAIFNATISGLIGMALTPLLMGLVISASGASMPLGRALMGVALQLLLPFALGQAARPLIGNWLAKKKQITNKIDRGVIVLIVYSSFCDATAAGLWHQYHWQTIGAVMGIAAVLLFVILGTTTFTARRLGFSVEDEITAVFCGSKKSLANGIPMAKILFAGHPALGLLVLPLMVYHQLQLIVCSVIAARYANRDDVETREAVRA,failed
17,MRHFRVFLRKPKRITSAAQPLETGSSGLHFSAVNPRQAPASFFPSLRRFTVRLTAARQDQLVSYFFTCFKGVSMSQSVMKKSVLRILPGLLCLALPLSSCSSSKSPKATMTATPVELRYREATEKIAKRKYNDAIVILESLMFSTRATALEDDVLKALADSYYKKKEYILAADTYRRLLQQTPDSPYARDAQFMLAKSYEKLSPFHELDQEYTVKAINEFETYLDQYPSDDSAQAANDLELYKNLMKVNPDNASYREKYEAAKEELASGSPARYSQKAISELRERLAHNRFSIARQYFKLKKYRAAEIFYDVVINQYPDTKWLESAWIGKIDSEIKQNNWFEARQSIETFQQLYPDKAKLIEPAAKRVTAHYSNKRDPKSKE,failed
18,MGKEAVTGKVRKLTVQLDHQTGDLKGCSRRGPTPRSRAPGAKLSAPEAGPPRRGPLPRGGAGRDTLLGAKATPSSPAARRYVTALGPPQPRGSTDSACAALPQPVPHEPREAAFRLAPASERGASVSPARIPRRRRRVPAMWDPRAARTPPRELAMLLCNKSNAFYNLGKWNEAFLAAKECLQWDPTYVKGYYRAGYSLLHLLQPYEAARMFFEGLRLLQRSPDQLQVPDFLVGIFTTMSSDSIVLQSFLPCFDHIFTTGFSTEVWQYVIQKLAKKGLWHQSFLLLSAKKDRLPSNIHVSELSLQSLFEKYVFIGFYEKLEQVPKLVQWLVSIGANIETIGPNPLHALMRLCIQARESQLFRWVMDQKPEWKEHINHRDDAGCTVLHVAAAHFPGYTSRRQTEDVQMLLSFGADPTLLDGHARTVVDVLKRNKNFRAIDKINSHLEKLASSSKGLSALQEAFISKQ,failed
19,MICKLKLLSLPSYSSKPCNFYIHLKCSELPQKIRHPFDRNHLLSLISSPKYQEGRFRCNACGKDGDRLAYHCGDCGIDLHTVCANMPSRVTHQSHPHHQLSLTFSMPPGGPGSAAASSFQCCVCRGLGSNSWLYSCGECSGFDAHL,failed
20,GGLRLIPLDQVRYLQADEKYVVICHEQGEDLIEESLKSLEKEFSDRFVRIHRNCLIARAELTELRRCSDGQVQAVLRNVVTPLAVSRRCVPLLCDQLR,not failed
21,MAKVTERYDVTWEEMRDKMRKWREENSRNSEQIMEVGEELINDYASKLGDDIWIIYEQVMIAALDYGRDDLALFCLQELRRQFPGSHRVKRLTGMRFEAMERYDDAIQLYDRILQEDPTNTAARKRKIAIRKAQGKTVEAIRELNEYLEQFVGDQEAWHELAELYINEHDYAKAAFCLEELMMTNPHNHLYCQQYAEVKYTQGGLENLELSRKYFAQALKLNNRNMRALFGLYMSASHIASNPKASAKMKKDNIKYASWAANQINRAYQFAGRSKKETKYSLKAVEDMLETLQITQS,failed
